T1: Abf2p (mature) (Saccharomyces cerevisiae, UniProt Q02486 27-183)
T1 sequence: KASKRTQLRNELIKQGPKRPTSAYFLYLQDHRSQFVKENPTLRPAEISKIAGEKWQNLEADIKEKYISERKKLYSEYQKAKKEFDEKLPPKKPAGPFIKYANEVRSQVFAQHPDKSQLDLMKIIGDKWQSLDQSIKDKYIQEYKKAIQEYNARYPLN

B1: GC_22 (dsDNA)
DNA 1: GAAGATATCCGGGTCCCAATAA
DNA 2: TTATTGGGACCCGGATATCTTC
B2: Af2_22 5-BrU6 (dsDNA)
DNA 1: AATAATAAATTATATAATATAA
DNA 2: TTATATTATATAATTTATTATT
modifications: T6 replaced by 5-bromouracil

Key:
Abf2p (mature) [1] = target: T1, Abf2p (mature); test: ITC
Abf2p (mature) [2] = target: T1, Abf2p (mature); test: X-ray crystallography

Binder | binding result (Abf2p (mature) [1]) | binding result (Abf2p (mature) [2])
B1 | binds | 
B2 |  | binds

Source: publication PMC5314765
